Test results: the supplement of paper PMC10724198
± gives the standard deviation of the averaged measurements.

test system: Saccharomyces cerevisiae; experiment: protein stability index of tFT-peptide fusion (C-terminal peptide) (PSI (0-1 scale)); higher = more stable (slower turnover); conditions: genetic background: wild type; temperature: 30 C
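Also: PSI is a weighted mean of sequencing reads over stability bins, variants kept only with over 10 reads, mCherry proximal and sfGFP distal, peptide attached via GGGS linker.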

RWATLSREFYQI and RWFILCRSLPTG are within error of each other in protein stability index: 0.526 ± 0.023 for the first, 0.613 ± 0.071 for the second.

RWGGGGSVSFWW and RWGGRTASVPCG are within error of each other in protein stability index: 0.712 ± 0.053 for the first, 0.754 ± 0.015 for the second.

Going from RWGGSSPGRSFA to RWRFSARSRLSR, the protein stability index falls from 0.766 ± 0.0091 to 0.642 ± 0.013.

Compared with RWSVSLAVTVLL, RYAEVGSLVSFL is higher in protein stability index: 0.503 ± 0.011 for the first, 0.714 ± 0.0087 for the second.

Compared with RYEQRKNRRQKL, RYGDGIELVIGS is lower in protein stability index: 0.799 ± 0.017 for the first, 0.657 ± 0.011 for the second.

Going from RYHQNTKKTSDI to RYLLCSSVESAV, the protein stability index falls from 0.7119 ± 0.0016 to 0.639 ± 0.028.

RYLLPYQRRLFL and RYNRVVCTEFHL are within error of each other in protein stability index: 0.745 ± 0.26 for the first, 0.668 ± 0.01 for the second.

RYRSQNNKKLEE and SADILGLPRYLT are within error of each other in protein stability index: 0.658 ± 0.024 for the first, 0.656 ± 0.023 for the second.

Compared with SAFLPPLSPFSP, SAFPSRVIGGGV is lower in protein stability index: 0.753 ± 0.037 for the first, 0.661 ± 0.01 for the second.

Going from SAGDLFVFEYLG to SALRWPRPVLRV, the protein stability index falls from 0.6759 ± 0.0024 to 0.619 ± 0.017.

SAPCSFCPPPPG and SAPLASRLCLFA are within error of each other in protein stability index: 0.667 ± 0.026 for the first, 0.644 ± 0.0065 for the second.

SAPSPPPPLAPP and SAQSAGRQRLQK are within error of each other in protein stability index: 0.679 ± 0.041 for the first, 0.695 ± 0.014 for the second.

SARDQGISCAEC and SASPEGTQRSPW are within error of each other in protein stability index: 0.674 ± 0.04 for the first, 0.761 ± 0.14 for the second.

SASPPLAERRGQ and SASPVAGWLGGP are within error of each other in protein stability index: 0.655 ± 0.043 for the first, 0.677 ± 0.044 for the second.

First: SATRLGLGLCWV
Second: SAVRHPRPGRPG
The protein stability index of the first is lower: 0.6383 ± 0.0039 for the first, 0.6938 ± 0.0053 for the second.

SCCTITVPERPR and SCIAVRDPWGLV are within error of each other in protein stability index: 0.653 ± 0.045 for the first, 0.683 ± 0.018 for the second.

SCLFGIFRWWVG and SCLFRVFMFHFS are within error of each other in protein stability index: 0.568 ± 0.025 for the first, 0.553 ± 0.04 for the second.

SCLMSFAFFASL and SCLRCSCLTEVL are within error of each other in protein stability index: 0.619 ± 0.016 for the first, 0.614 ± 0.021 for the second.

SCPHPAPPPPPP and SCPPSFIPVLSP are within error of each other in protein stability index: 0.677 ± 0.023 for the first, 0.667 ± 0.035 for the second.

SCPSRLFLSFRG and SCRGKTRPASGR are within error of each other in protein stability index: 0.683 ± 0.034 for the first, 0.64 ± 0.027 for the second.

SCSLPCPRLPSD and SCSVGRRIGLGQ are within error of each other in protein stability index: 0.719 ± 0.15 for the first, 0.688 ± 0.061 for the second.

SCVFPSSCFVLI and SCVGCLYMYWSL are within error of each other in protein stability index: 0.607 ± 0.019 for the first, 0.6102 ± 0.0049 for the second.

SCVLSYVASYAQ and SCVSCACPVYWR are within error of each other in protein stability index: 0.66 ± 0.018 for the first, 0.662 ± 0.065 for the second.

SDKKGQKLKESQ and SDKNNRFGRVRV are within error of each other in protein stability index: 0.693 ± 0.044 for the first, 0.674 ± 0.072 for the second.

SDLDFSRLHGSA and SDMTHRSCTLLC are within error of each other in protein stability index: 0.698 ± 0.056 for the first, 0.633 ± 0.028 for the second.

First: SDVAGRCFFVVI
Second: SDVLSFYGGVEC
The protein stability index of the first is lower: 0.589 ± 0.033 for the first, 0.742 ± 0.026 for the second.

SEALRGVQFLSC and SECFARSSSPRA are within error of each other in protein stability index: 0.684 ± 0.054 for the first, 0.7129 ± 0.0041 for the second.

SEFDSVSRIVYY and SEGSLIPGSHIA are within error of each other in protein stability index: 0.705 ± 0.048 for the first, 0.733 ± 0.066 for the second.

SERKAKAEVAEA and SFARMTAIPGLR are within error of each other in protein stability index: 0.692 ± 0.064 for the first, 0.661 ± 0.029 for the second.

Compared with SFFCSKCPLLCP, SFFLALSIRLPN is higher in protein stability index: 0.533 ± 0.016 for the first, 0.609 ± 0.0042 for the second.

First: SFFPPFHLLFSY
Second: SFFTLDRHPSYD
The protein stability index of the first is lower: 0.532 ± 0.025 for the first, 0.715 ± 0.023 for the second.

SFGLGGSFFWVG and SFGLSAGGDDRW are within error of each other in protein stability index: 0.7 ± 0.035 for the first, 0.74 ± 0.016 for the second.

SFGTLPLNSTAS and SFGVDPDNCVGF are within error of each other in protein stability index: 0.644 ± 0.029 for the first, 0.607 ± 0.061 for the second.

SFNDVPPPEGIK and SFPAPPSPPPLP are within error of each other in protein stability index: 0.67 ± 0.038 for the first, 0.702 ± 0.081 for the second.

SFRCLGFTSSRV and SFRFCSNRFTRL are within error of each other in protein stability index: 0.681 ± 0.05 for the first, 0.699 ± 0.056 for the second.

Going from SFRLLCPPPPLP to SFRPPPPSSFPA, the protein stability index rises from 0.6805 ± 0.0046 to 0.745 ± 0.019.

Going from SFSFLLSLSFLP to SFSLAGFVCCVI, the protein stability index rises from 0.529 ± 0.017 to 0.6002 ± 0.0045.

SFSSHRSPPPPL and SFSSPPPTLVPP are within error of each other in protein stability index: 0.698 ± 0.13 for the first, 0.693 ± 0.038 for the second.

SFTSSFPGSSPS and SFVLFAGPVFFW are within error of each other in protein stability index: 0.703 ± 0.058 for the first, 0.655 ± 0.025 for the second.

SFVSRSRLAEVD and SFYFSAFYPSIV are within error of each other in protein stability index: 0.682 ± 0.073 for the first, 0.667 ± 0.013 for the second.

SFYIMSIQRKAK and SGASFLKVGLSV are the same in protein stability index: 0.681 ± 0.052 for the first, 0.6812 ± 0.0032 for the second.

SGASPSPPRTLS and SGAVGSTNYGTR are within error of each other in protein stability index: 0.7493 ± 0.0017 for the first, 0.743 ± 0.018 for the second.

First: SGAVVIPCTFER
Second: SGGCGWGAGVRV
The protein stability index of the first is lower: 0.669 ± 0.025 for the first, 0.778 ± 0.02 for the second.

SGGGSSSGKGIR and SGGRCVGVGGVV are within error of each other in protein stability index: 0.715 ± 0.091 for the first, 0.658 ± 0.028 for the second.

SGGRPVQSWCAW and SGGSGGSCMRYV are within error of each other in protein stability index: 0.779 ± 0.29 for the first, 0.691 ± 0.025 for the second.

SGLERGCSRCWH and SGLSFPPLYSLL are within error of each other in protein stability index: 0.687 ± 0.0088 for the first, 0.715 ± 0.092 for the second.

First: SGLVCDGSSGGV
Second: SGRPEGERAPEQ
The protein stability index of the first is lower: 0.635 ± 0.0083 for the first, 0.728 ± 0.06 for the second.

First: SGRVGRGAADWR
Second: SGRVMRAFSCGV
The protein stability index of the first is higher: 0.681 ± 0.029 for the first, 0.6228 ± 0.0036 for the second.

First: SGSFAIYCSVSF
Second: SGSGCSDRRPSR
The protein stability index of the first is lower: 0.611 ± 0.045 for the first, 0.699 ± 0.02 for the second.

SGSSIAVLPTPC and SGTFACCLGVCL are within error of each other in protein stability index: 0.747 ± 0.11 for the first, 0.6806 ± 0.0062 for the second.

SGVILWSAWRDG and SGVLSLVDVWTG are within error of each other in protein stability index: 0.7029 ± 0.0014 for the first, 0.747 ± 0.1 for the second.

SGVRAAGEGDSE and SGVRGRGSFWSV are within error of each other in protein stability index: 0.735 ± 0.033 for the first, 0.664 ± 0.04 for the second.

SHHSVNWKPQGL and SHIAIEKLHSKN are within error of each other in protein stability index: 0.668 ± 0.025 for the first, 0.709 ± 0.056 for the second.

SHPTLCSFSPPA and SHRRSMTNNKAK are within error of each other in protein stability index: 0.686 ± 0.035 for the first, 0.705 ± 0.01 for the second.

First: SIFVNICRRMKC
Second: SIIIRVTQSGSG
The protein stability index of the first is lower: 0.616 ± 0.014 for the first, 0.6414 ± 0.0056 for the second.

SIIRDKERNNYK and SIISRVLDAMAK are within error of each other in protein stability index: 0.654 ± 0.015 for the first, 0.724 ± 0.21 for the second.

SILQINRDNVMR and SILWRCEEEIRR are within error of each other in protein stability index: 0.742 ± 0.02 for the first, 0.736 ± 0.029 for the second.

SINPRVYFVDCQ and SIPSPLVPPLTR are within error of each other in protein stability index: 0.689 ± 0.034 for the first, 0.72 ± 0.04 for the second.

SIPVHGPCNRVV and SIRTKVVRNVVS are within error of each other in protein stability index: 0.671 ± 0.025 for the first, 0.625 ± 0.087 for the second.

Compared with SKKNKNIQKHLY, SKKSKTQSNKNQ is lower in protein stability index: 0.728 ± 0.011 for the first, 0.683 ± 0.02 for the second.

Going from SKPTQQNRRPDG to SKQNNIEMKKYK, the protein stability index rises from 0.596 ± 0.028 to 0.741 ± 0.036.

First: SKTQRAQSGNSA
Second: SLAGLLPCRLTP
The protein stability index of the first is higher: 0.699 ± 0.054 for the first, 0.621 ± 0.023 for the second.

Compared with SLAGWPPPSIST, SLAPLPLIVLFL is lower in protein stability index: 0.686 ± 0.013 for the first, 0.487 ± 0.023 for the second.

SLCCPLHQTRFR and SLDLALLSPFFG are within error of each other in protein stability index: 0.684 ± 0.046 for the first, 0.679 ± 0.029 for the second.

SLENRFGGFYVG and SLEWGGGRRWPI are within error of each other in protein stability index: 0.749 ± 0.066 for the first, 0.719 ± 0.023 for the second.

Compared with SLFPPPLLLSAS, SLFSFLPRLYSH is higher in protein stability index: 0.574 ± 0.0095 for the first, 0.627 ± 0.023 for the second.

SLFSVLSPPYPS and SLGAHHAAFRVV are within error of each other in protein stability index: 0.653 ± 0.032 for the first, 0.63 ± 0.044 for the second.

SLGGCVMCGTTL and SLGGLVSGPGLV are within error of each other in protein stability index: 0.708 ± 0.029 for the first, 0.687 ± 0.032 for the second.

SLGGRVAGGWRD and SLGLALSLRSSV are within error of each other in protein stability index: 0.645 ± 0.1 for the first, 0.6361 ± 0.0054 for the second.

SLGLHADLLSRT and SLGNTRRTKKSI are within error of each other in protein stability index: 0.672 ± 0.064 for the first, 0.636 ± 0.054 for the second.

Compared with SLGRYVDCLLGC, SLGVVSHGASRP is higher in protein stability index: 0.6463 ± 0.0044 for the first, 0.693 ± 0.027 for the second.

SLHPPPPPFRLS and SLHSTPRPPAPG are within error of each other in protein stability index: 0.753 ± 0.014 for the first, 0.705 ± 0.063 for the second.

SLILRHLSPPTP and SLIPLRLTLTRH are within error of each other in protein stability index: 0.762 ± 0.15 for the first, 0.739 ± 0.023 for the second.

First: SLKRRWPYPNRP
Second: SLLLMLPFPLPG
The protein stability index of the first is higher: 0.681 ± 0.011 for the first, 0.618 ± 0.028 for the second.

SLLLPPRPPSPS and SLLLPTPPPFRP are within error of each other in protein stability index: 0.672 ± 0.017 for the first, 0.644 ± 0.028 for the second.

SLLLSRPLSTSH and SLLTSSPLPSPP are within error of each other in protein stability index: 0.6945 ± 0.0031 for the first, 0.696 ± 0.043 for the second.

SLPAFPPNTFMP and SLPGVRVPRVGR are within error of each other in protein stability index: 0.7 ± 0.017 for the first, 0.715 ± 0.059 for the second.

First: SLPHSFIYYPLP
Second: SLPLPSPRPILR
The protein stability index of the first is higher: 0.755 ± 0.037 for the first, 0.64 ± 0.0092 for the second.

SLPLVLHGHRLY and SLPPAHPPPPRP are within error of each other in protein stability index: 0.672 ± 0.027 for the first, 0.693 ± 0.026 for the second.

SLPPFPVTSRHP and SLPPSSPLPPVS are within error of each other in protein stability index: 0.691 ± 0.011 for the first, 0.665 ± 0.035 for the second.
